# Results as given in publication PMC13066552 (Nature Communications, 2026).
# Biological target: the molecule itself
# Test: methyl-TROSY NMR spectra compared
protein,measurement,value
Bpa 45-153 (domain or fragment) AKVMRIGTMIKQLLEEVRAAPLDEASRNRLRDIHATSIRELEDGLAPELREELDRLTLPFNEDAVPSDAELRIAQAQLVGWLEGLFHGIQTALFAQQMAARAQLQQMRQ,stoichiometry N,4 subunits
